Laboratory results from paper PMC5563082 (2017).

Tests used:
Assay in all cases: SPR
[1] = molecular target: T1, human NL1(–A+B)_(ECTO), immobilised for SPR (human, biotin on the Avitag (in vivo biotinylation by BirA); N-linked glycan at Asn300)
T1 chain: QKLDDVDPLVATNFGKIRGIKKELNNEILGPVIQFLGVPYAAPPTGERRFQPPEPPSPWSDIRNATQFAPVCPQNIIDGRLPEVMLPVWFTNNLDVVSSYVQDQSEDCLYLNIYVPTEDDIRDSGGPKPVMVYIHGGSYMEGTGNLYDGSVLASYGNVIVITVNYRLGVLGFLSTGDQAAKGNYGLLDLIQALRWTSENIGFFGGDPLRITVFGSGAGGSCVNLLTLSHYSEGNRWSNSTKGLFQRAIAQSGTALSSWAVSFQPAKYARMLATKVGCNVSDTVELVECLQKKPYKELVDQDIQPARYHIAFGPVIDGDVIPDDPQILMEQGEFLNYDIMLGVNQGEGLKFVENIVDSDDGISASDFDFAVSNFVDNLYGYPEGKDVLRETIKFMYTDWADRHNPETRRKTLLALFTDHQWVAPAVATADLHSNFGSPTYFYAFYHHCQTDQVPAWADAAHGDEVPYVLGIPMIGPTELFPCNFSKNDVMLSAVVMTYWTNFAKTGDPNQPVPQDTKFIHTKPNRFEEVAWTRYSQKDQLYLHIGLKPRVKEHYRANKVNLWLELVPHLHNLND

[2] = molecular target: T2, human NL1(+A1–B)_(ECTO), immobilised for SPR (human, biotin on the Avitag (in vivo biotinylation by BirA))
T2 chain: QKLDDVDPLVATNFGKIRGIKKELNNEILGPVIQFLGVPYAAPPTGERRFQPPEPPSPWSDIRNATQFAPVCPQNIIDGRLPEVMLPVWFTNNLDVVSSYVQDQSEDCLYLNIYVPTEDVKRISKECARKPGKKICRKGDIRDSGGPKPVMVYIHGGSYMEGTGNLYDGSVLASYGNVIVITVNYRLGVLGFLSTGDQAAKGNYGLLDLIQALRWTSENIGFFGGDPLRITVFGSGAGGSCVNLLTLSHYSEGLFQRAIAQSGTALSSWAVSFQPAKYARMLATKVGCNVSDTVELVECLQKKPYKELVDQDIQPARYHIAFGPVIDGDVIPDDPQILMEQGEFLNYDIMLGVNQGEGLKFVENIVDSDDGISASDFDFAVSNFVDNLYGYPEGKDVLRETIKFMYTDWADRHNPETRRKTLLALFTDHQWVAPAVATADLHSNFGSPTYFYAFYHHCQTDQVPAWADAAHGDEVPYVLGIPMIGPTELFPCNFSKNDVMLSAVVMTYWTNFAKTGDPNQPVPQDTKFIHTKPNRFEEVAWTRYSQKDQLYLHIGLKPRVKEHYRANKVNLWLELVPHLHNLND

[3] = molecular target: T3, human NL1(+A1+A2–B)_(ECTO), immobilised for SPR (human, biotin on the Avitag (in vivo biotinylation by BirA))
T3 chain: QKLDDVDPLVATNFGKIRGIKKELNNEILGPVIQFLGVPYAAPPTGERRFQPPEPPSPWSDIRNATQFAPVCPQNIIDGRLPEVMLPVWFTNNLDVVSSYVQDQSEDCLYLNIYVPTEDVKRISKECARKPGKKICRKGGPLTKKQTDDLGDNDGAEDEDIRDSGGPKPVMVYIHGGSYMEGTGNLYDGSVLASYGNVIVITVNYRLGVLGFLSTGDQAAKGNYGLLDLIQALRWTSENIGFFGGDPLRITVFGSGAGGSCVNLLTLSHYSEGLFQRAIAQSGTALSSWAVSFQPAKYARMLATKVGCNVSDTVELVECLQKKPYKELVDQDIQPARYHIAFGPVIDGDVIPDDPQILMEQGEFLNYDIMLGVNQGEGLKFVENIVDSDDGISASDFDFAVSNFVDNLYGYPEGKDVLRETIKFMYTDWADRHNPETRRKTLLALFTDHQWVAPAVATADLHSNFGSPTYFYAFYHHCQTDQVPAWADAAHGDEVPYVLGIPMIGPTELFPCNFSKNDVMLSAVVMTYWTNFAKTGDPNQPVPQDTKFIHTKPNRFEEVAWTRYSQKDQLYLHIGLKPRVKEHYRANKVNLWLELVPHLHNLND

[4] = molecular target: T4, human NL1(+A2–B)_(ECTO), immobilised for SPR (human, biotin on the Avitag (in vivo biotinylation by BirA))
T4 chain: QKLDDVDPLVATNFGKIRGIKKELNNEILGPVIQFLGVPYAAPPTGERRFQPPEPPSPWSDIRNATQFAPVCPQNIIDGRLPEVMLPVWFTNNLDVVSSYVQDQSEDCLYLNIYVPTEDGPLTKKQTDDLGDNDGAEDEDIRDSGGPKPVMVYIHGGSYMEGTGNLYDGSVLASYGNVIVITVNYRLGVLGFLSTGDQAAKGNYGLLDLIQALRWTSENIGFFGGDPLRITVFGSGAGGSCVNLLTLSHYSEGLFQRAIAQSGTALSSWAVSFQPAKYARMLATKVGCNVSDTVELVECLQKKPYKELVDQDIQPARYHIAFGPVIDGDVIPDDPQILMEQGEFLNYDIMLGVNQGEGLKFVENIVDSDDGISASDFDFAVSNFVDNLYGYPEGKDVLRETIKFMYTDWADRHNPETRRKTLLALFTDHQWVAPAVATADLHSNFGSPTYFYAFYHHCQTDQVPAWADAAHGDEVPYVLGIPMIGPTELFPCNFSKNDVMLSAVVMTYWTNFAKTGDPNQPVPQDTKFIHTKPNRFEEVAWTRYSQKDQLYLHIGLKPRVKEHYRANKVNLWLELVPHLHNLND

B1: human β-neurexin-1 LNS6 domain lacking SS4 (β-NRX1_(LNS6)(–4); His85-Val265) (domain or fragment)
chain: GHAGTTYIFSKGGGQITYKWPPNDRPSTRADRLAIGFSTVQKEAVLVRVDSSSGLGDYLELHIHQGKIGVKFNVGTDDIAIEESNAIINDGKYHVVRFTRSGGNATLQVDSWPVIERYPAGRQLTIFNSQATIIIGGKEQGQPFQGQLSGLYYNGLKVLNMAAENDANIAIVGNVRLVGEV
[1]
  Kd: 1.16 µM
[2]
  Kd: 766 nM
[3]
  Kd: 784 nM
[4]
  Kd: 795 nM

B2: human MDGA1 extracellular domain (MDGA1_(ECTO); Gln19-Lys925) (domain or fragment)
chain: QGVYAPAQAQIVHAGQACVVKEDNISERVYTIREGDTLMLQCLVTGHPRPQVRWTKTAGSASDKFQETSVFNETLRIERIARTQGGRYYCKAENGVGVPAIKSIRVDVQYLDEPMLTVHQTVSDVRGNFYQEKTVFLRCTVNSNPPARFIWKRGSDTLSHSQDNGVDIYEPLYTQGETKVLKLKNLRPQDYASYTCQVSVRNVCGIPDKAITFRLTNTTAPPALKLSVNETLVVNPGENVTVQCLLTGGDPLPQLQWSHGPGPLPLGALAQGGTLSIPSVQARDSGYYNCTATNNVGNPAKKTVNLLVRSMKNATFQITPDVIKESENIQLGQDLKLSCHVDAVPQEKVTYQWFKNGKPARMSKRLLVTRNDPELPAVTSSLELIDLHFSDYGTYLCMASFPGAPVPDLSVEVNISSETVPPTISVPKGRAVVTVREGSPAELQCEVRGKPRPPVLWSRVDKEAALLPSGLPLEETPDGKLRLERVSRDMSGTYRCQTARYNGFNVRPREAQVQLNVQFPPEVEPSSQDVRQALGRPVLLRCSLLRGSPQRIASAVWRFKGQLLPPPPVVPAAAEAPDHAELRLDAVTRDSSGSYECSVSNDVGSAACLFQVSAKAYSPEFYFDTPNPTRSHKLSKNYSYVLQWTQREPDAVDPVLNYRLSIRQLNQHNAVVKAIPVRRVEKGQLLEYILTDLRVPHSYEVRLTPYTTFGAGDMASRIIHYTEPINSPNLSDNTCHFEDEKICGYTQDLTDNFDWTRQNALTQNPKRSPNTGPPTDISGTPEGYYMFIETSRPRELGDRARLVSPLYNASAKFYCVSFFYHMYGKHIGSLNLLVRSRNKGALDTHAWSLSGNKGNVWQQAHVPISPSGPFQIIFEGVRGPGYLGDIAIDDVTLKKGECPRKQTDPNK
[1]
  Kd: 13.2 µM
[2]
  Kd: 2080 nM
[3]
  Kd: 3050 nM
[4]
  Kd: 3210 nM

B3: human MDGA2 extracellular domain (MDGA2_(ECTO); Gln21-Lys927) (domain or fragment)
chain: QGVYAPPTVRIVHSGLACNIEEERYSERVYTIREGETLELTCLVTGHPRPQIRWTKTAGSASDRFQDSSVFNETLRITNIQRHQGGRYYCKAENGLGSPAIKSIRVDVYYLDDPVVTVHQSIGEAKEQFYYERTVFLRCVANSNPPVRYSWRRGQEVLLQGSDKGVEIYEPFFTQGETKILKLKNLRPQDYANYSCIASVRNVCNIPDKMVSFRLSNKTASPSIKLLVDDPIVVNPGEAITLVCVTTGGEPAPSLTWVRSFGTLPEKTVLNGGTLTIPAITSDDAGTYSCIANNNVGNPAKKSTNIIVRALKKGRFWITPDPYHKDDNIQIGREVKISCQVEAVPSEELTFSWFKNGRPLRSSERMVITQTDPDVSPGTTNLDIIDLKFTDFGTYTCVASLKGGGISDISIDVNISSSTVPPNLTVPQEKSPLVTREGDTIELQCQVTGKPKPIILWSRADKEVAMPDGSMQMESYDGTLRIVNVSREMSGMYRCQTSQYNGFNVKPREALVQLIVQYPPAVEPAFLEIRQGQDRSVTMSCRVLRAYPIRVLTYEWRLGNKLLRTGQFDSQEYTEYAVKSLSNENYGVYNCSIINEAGAGRCSFLVTGKAYAPEFYYDTYNPVWQNRHRVYSYSLQWTQMNPDAVDRIVAYRLGIRQAGQQRWWEQEIKINGNIQKGELITYNLTELIKPEAYEVRLTPLTKFGEGDSTIRVIKYSAPVNPHLREFHCGFEDGNICLFTQDDTDNFDWTKQSTATRNTKYTPNTGPNADRSGSKEGFYMYIETSRPRLEGEKARLLSPVFSIAPKNPYGPTNTAYCFSFFYHMYGQHIGVLNVYLRLKGQTTIENPLWSSSGNKGQRWNEAHVNIYPITSFQLIFEGIRGPGIEGDIAIDDVSIAEGECAKQDLATK
[1]
  Kd: 9.63 µM
[2]
  Kd: 1200 nM
[3]
  Kd: 1410 nM
[4]
  Kd: 1460 nM

B4: human β-neurexin-1 LNS6 domain with SS4 (β-NRX1_(LNS6)(+4)) (domain or fragment)
chain: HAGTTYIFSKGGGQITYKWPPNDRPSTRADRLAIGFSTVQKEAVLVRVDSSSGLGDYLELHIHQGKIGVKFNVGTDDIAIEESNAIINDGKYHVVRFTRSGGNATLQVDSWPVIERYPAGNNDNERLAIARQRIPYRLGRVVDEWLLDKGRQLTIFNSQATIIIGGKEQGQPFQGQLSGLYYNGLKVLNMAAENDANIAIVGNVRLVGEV
[1]
  Kd: 4.75 µM
[2]
  Kd: 2820 nM
[3]
  Kd: 2710 nM
[4]
  Kd: 2750 nM
